# Source: article PMC13334617 (Advanced Science, 2026)
# B1: CaM fused to the V9A nanobody at its N-terminus and a tetra-cysteine tag at its C-terminus (CaM-V9A), encoded by plasmid pTCam-V9A (VHH)
# VHH: DVQLQESGGGSVQAGGSLRLSCAASGDTFSSYSMAWFRQAPGKECELVSNILRDGTTTYAGSVKGRFTISRDDAKNTVYLQMVNLKSEDTARYYCAADSGTQLGYVGAVGLSCLDYVMDYWGKGTQVTVSS
# notes: source: E. coli DHM1, expressed in cells from plasmid pTCam-V9A (high expression); not shown: tetra-cysteine tag, C-terminal, kept
# Biological target: wild-type AC fused to GFP (AC-GFP), encoded by plasmid pAC0-Gfp (GFP: Aequorea victoria (variant not …, UniProt P42212 = GFP))
# Experiment: two-hybrid
# Settings: partners not purified
binder,measurement,value
B1,cAMP,> 250 nmol/mg
same,ß gal (Rel. Units),107 Rel. Units
